{"source": "patent US20220340636A1", "key": {"[1]": {"molecular_target": "human insulin receptor (hIR) (human) (UniProt P06213)", "assay": "cell-based or functional assay"}, "[2]": {"molecular_target": "human insulin receptor (hIR) (human) (UniProt P06213)", "assay": "binding to hIR, assay not described at this place; reference human insulin"}, "[3]": {"molecular_target": "human IR-B overexpressed on NIH 3T3 mouse fibroblast cells (human) (UniProt P06213)", "assay": "cell-based or functional assay"}, "[4]": {"molecular_target": "solubilised immuno-captured human IR (isoform B) (human) (UniProt P06213)", "assay": "competition binding on human IR-B (FIG. 2); reference PTM-free sCon-Ins G1"}, "[5]": {"molecular_target": "solubilised immuno-captured human IR (isoform B) (human) (UniProt P06213)"}}, "data": [{"substance": "B10E, B20 biphenyl DOI analogue (ligand)", "values": [{"measurement": "fold higher potency than N10E, B20Y DOI", "setting": "[1]", "result": 3, "unit": "fold"}, {"measurement": "fold increase of the potency of DOI", "setting": "[1]", "result": 100, "unit": "fold"}, {"measurement": "percent of the potency of human insulin", "setting": "[1]", "result": 10, "unit": "%"}]}, {"substance": "B20 Tyr DOI analogue (ligand)", "values": [{"measurement": "fold increased potency in hIR activation (against DOI)", "setting": "[1]", "result": 5, "unit": "fold"}]}, {"substance": "Con-Ins G1 (ligand)", "values": [{"measurement": "fold less affinity than human insulin", "setting": "[2]", "result": 30, "unit": "fold"}]}, {"substance": "DOI analogue with B10 Glu and B20 Tyr (ligand)", "values": [{"measurement": "fold increase in potency compared to B20 Tyr alone", "setting": "[1]", "result": 5, "unit": "fold"}]}, {"substance": "hIns[TyrB15, TyrB20, DOI] (ligand)", "values": [{"measurement": "fold increased potency in hIR activation (against DOI)", "setting": "[1]", "result": 5, "unit": "fold"}, {"measurement": "fold more active than hIns[DOI], Akt phosphorylation assay", "setting": "[3]", "result": 5, "unit": "fold"}]}, {"substance": "sCon-Ins G1 (ligand)", "values": [{"measurement": "fold more active than the PTM-free analogue", "setting": "[4]", "result": 4, "unit": "fold"}, {"measurement": "fold less active than hIns", "setting": "[5]", "result": 30, "unit": "fold"}, {"measurement": "log [IC50 (nM)]", "setting": "[5]", "result": 1.24, "unit": "log nM"}]}]}
